Among the data in PMC11227718 are expression_or_secretion and degradation_or_half_life values, retold here.

Series [1] can be described thus: immunoblot of endogenous CCDC88C, BT549. Conditions: glycan gained; control: empty vector. A general note: In western blotting, separated proteins are transferred to a membrane and probed.
The nature of series [2]: cycloheximide chase, immunoblot.
Series [3] can be described thus: immunoblot of endogenous CCDC88C. Conditions: glycan lost; control: negative control siRNA.

“Coiled-coil domain containing 88C (CCDC88C, Daple): GALNT6 overexpression”: the expression_or_secretion result in series [1] is “increases”. Further, the degradation_or_half_life entry in series [2] (glycan gained, control: empty vector) is listed as “increases”.

For the substance “Coiled-coil domain containing 88C (CCDC88C, Daple): si-GALNT6”, in series [3], the expression_or_secretion result is “decreases”. Further, the degradation_or_half_life entry in series [2] (glycan lost, control: negative control siRNA) was “decreases”.
